Laboratory results as given in patent US7732133B2, “Screening methods for biologically active ligands” (Chugai Seiyaku Kabushiki Kaisha, priority 2000, dated 2010).

B1: human Flt-3 ligand: human Flt-3 ligand (Genzyme) (protein, UniProt P49771 27-235, looked up)
Fms-related tyrosine kinase 3 …: TQDCSFQHSPISSDFAVKIRELSDYLLQDYPVTVASNLQDEELCGGLWRLVLAQRWMERLKTVAGSKMQGLLERVNTEIHFVTKCAFQPPPSCLRFVQTNISRLLQETSEQLVALKPWITRQNFSRCLELQCQPDSSTLPPPWSPRPLEATAPTAPQPPLLLLLLLPVGLLLLAAAWCLHWQRTRRRTPRPGEQVPPVPSPQDLLLVEH
B2: granulocyte-colony stimulating factor (protein, UniProt P09919 31-207, looked up)
Granulocyte …: TPLGPASSLPQSFLLKCLEQVRKIQGDGAALQEKLVSECATYKLCHPEELVLLGHSLGIPWAPLSSCPSQALQLAGCLSQLHSGLFLYQGLLQALEGISPELGPTLDTLQLDVADFATTIWQQMEELGMAPALQPTQGAMPAFASAFQRRAGGVLVASHLQSFLEVSYRVLRHLAQP
notes: human G-CSF prepared from recombinant CHO cells

Key:
[1] = target: T1, chimeric Flt-3 receptor (human Flt-3 extracellular domain / mouse G-CSF receptor) in Ba/F3 cell line FLG (Homo sapiens, UniProt P36888); assay: Growth response of chimeric Flt-3 receptor-expressing Ba/F3 cell line FLG (WST-8); assay type: cell-based; conditions: 74 hours culture, WST-8 absorbance
T1 construct: from the 1st to the 541st amino acid residues; expressed in transfected cells; host or cells: mouse Ba/F3 cells, clone FLG#102 = FLG
Description: A chimeric receptor cDNA was constructed by linking cDNA fragments encoding the extracellular domain (from the 1st to the 541st amino acid residues; Small, D. et al. (1994) Proc. Natl. Acad. Sci. USA. 91, 459-463) of human Flt-3, and the transmembrane and intracellular domains (from the 602nd to the 813th amino acid residues; Fukunaga, R. et al. (1990) Cell 61, 341-350) of mouse G-CSF receptor. The cDNA was inserted downstream of the EF1α promoter of the mammalian expression vector pCOS2 to construct chimeric receptor-expression vector FLG/pCOS2. The FLG/pCOS2 was linearized with Hpa I (Takara Shuzo), extracted with phenol and chloroform, and purified by ethanol precipitation.
(§1) The linearized expression gene vector was introduced into mouse Ba/F3 cells using an electroporation apparatus (Gene Pulser: Bio Rad). […]
(§2) The cells were washed twice with Media A, and were suspended in Media A to give a cell density of 5×10^4 cells/mL. […] After the culture, 10 μl/well WST-8 reagent (Cell Count Reagent SF; Nacalai Tesque) was added, and pre-reaction absorbance at a measurement wavelength of 450 nm and a control wavelength of 655 nm was measured using microplate reader (Model 3550, Bio Rad). The plate was incubated for two hours in a CO2 incubator (CO2 concentration, 5%; humidity, 99.9%), and post-reaction absorbance was measured as above.

[2] = target: T2, chimeric G-CSF receptor (human G-CSF receptor extracellular domain / mouse G-CSF receptor) in Ba/F3 cell line GFG (UniProt P40223+Q99062); assay: Growth response of chimeric G-CSF receptor-expressing Ba/F3 cell line GFG (WST-8); assay type: cell-based; conditions: 70 hours culture, WST-8 absorbance
T2 construct: the extracellular domain (from the −23rd to the 604th amino acid residues); expressed in transfected cells; host or cells: mouse Ba/F3 cells, clone GFG#342 = GFG
T2 sequence (Q99062+P40223 with tags, fused parts or gaps): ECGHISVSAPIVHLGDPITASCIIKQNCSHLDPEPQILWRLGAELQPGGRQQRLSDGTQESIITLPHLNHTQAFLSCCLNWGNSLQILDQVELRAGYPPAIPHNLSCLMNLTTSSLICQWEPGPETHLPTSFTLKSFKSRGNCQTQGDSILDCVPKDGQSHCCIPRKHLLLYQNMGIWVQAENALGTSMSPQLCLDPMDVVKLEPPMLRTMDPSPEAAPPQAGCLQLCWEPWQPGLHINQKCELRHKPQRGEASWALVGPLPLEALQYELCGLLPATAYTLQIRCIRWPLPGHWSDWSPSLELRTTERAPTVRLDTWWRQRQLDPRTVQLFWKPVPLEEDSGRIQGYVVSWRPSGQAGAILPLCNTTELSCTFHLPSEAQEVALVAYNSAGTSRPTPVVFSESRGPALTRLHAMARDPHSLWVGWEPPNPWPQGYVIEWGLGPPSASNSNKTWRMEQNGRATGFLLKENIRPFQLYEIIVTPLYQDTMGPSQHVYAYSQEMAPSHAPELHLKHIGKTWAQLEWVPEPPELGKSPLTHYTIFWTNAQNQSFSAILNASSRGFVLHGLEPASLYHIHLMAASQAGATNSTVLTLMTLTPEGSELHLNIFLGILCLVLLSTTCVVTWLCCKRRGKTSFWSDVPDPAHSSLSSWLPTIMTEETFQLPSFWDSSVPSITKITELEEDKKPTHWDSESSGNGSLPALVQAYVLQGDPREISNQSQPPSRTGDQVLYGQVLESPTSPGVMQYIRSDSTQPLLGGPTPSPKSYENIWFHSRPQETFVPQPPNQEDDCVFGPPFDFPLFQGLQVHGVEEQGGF
Description: A chimeric receptor cDNA was constructed by linking cDNA fragments encoding the extracellular domain (from the −23rd to the 604th amino acid residues; Fukunaga, R. et al. (1990) Proc. Natl. Acad. Sci. USA 87, 8702-8706) of human G-CSF receptor, and the transmembrane and intracellular domains (from the 602nd to the 813th amino acid residues; Fukunaga, R. et al. (1990) Cell 61, 341-350) of mouse G-CSF receptor. The cDNA was inserted downstream of the HEF1α promoter of the mammalian expression vector pCOS-G to construct chimeric receptor-expression vector GG/pCOS-G. GG/pCOS-G was linearized with Pvu I (Takara Shuzo), extracted with phenol and chloroform, and purified by ethanol precipitation.
as §1
as §2, with “5%),” for “5%; humidity, 99.9%),”

[3] = Titer of human EPO and G-CSF prepared from recombinant CHO cells
[4] = tested on: mixed culture of cell lines GFG, EPG, TPG and parental Ba/F3; assay: Cytokine responses in mixed and individual cell cultures (Example 2); assay type: cell-based, mouse; conditions: mixed culture of four cell lines (each 4×10^3 cells/well), similar in individual cultures, 72 hours, WST-8; listed as hG-CSF
Experimental: Mixed culture of the cell lines GFG, EPG, and TPG, which express human G-CSF, EPO, and TPO chimeric receptors, respectively, and their parental cell line Ba/F3 was conducted and their response to various cytokines was examined.
The cells were washed twice with RPMI1640 media containing 2% fetal bovine serum, and then were suspended in RPMI1640 containing 10% fetal bovine serum. The four cell lines were mixed by adjusting each of the cell lines to 4×10^4 cells/mL (16×10^4 cells/mL in total) for the mixed culture, and, for individual cultures, cells were prepared at 4×10^4 cells/mL. 100 μL each of the cells were independently seeded on a 96-well microtiter plate (flat bottom, Falcon). After adding 100 μL/well each of appropriately diluted cytokines, the cultures were cultured for 72 hours in a CO2 incubator (5% CO2 concentration). After the culture, 10 μL/well WST-8 reagent (Cell Count Reagent SF; Nacalai Tesque) was added, and pre-reaction absorbance at a measurement wavelength of 450 nm and a control wavelength of 655 nm was measured using a microplate reader (Model 3550, Bio Rad). The plate was incubated for two hours in a CO2 incubator (CO2 concentration, 5%), and post-reaction absorbance was measured as above. Data were graphed out taking the cytokine concentrations on the horizontal axis and the amount of changes in absorbance after 2-hour incubation on the vertical axis (FIGS. 18, 19, and 20).

Molecule	concentration at which an evident growth reaction was observed [1] [pg/mL]	concentration at which an evident growth reaction was observed [2] [pg/mL]	titer [3]	concentration where the response was observed to start [4] [pg/mL]
B1	≥ 300	–	–	–
B2	–	≥ 10	1.2×10^8 IU/mg	2
